Experimental data taken from PMC8586658 (Cancer Science, 2021).

Biological target: T1, mouse IL‐2Rα on 293T cells (293Tα) (mouse, UniProt P01590 22-268)
T1 sequence: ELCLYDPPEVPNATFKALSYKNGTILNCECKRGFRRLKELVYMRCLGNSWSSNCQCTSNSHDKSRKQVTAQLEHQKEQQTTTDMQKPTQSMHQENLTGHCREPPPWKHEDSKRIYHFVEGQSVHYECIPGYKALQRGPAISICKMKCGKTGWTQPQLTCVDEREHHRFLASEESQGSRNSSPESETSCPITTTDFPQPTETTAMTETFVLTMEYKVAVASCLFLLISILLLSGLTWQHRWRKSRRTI
Assay: binding of NanoLuc fusion proteins to cells

B1: Mutakine‐6 (MK‐6), IL‐2 K35A/R38A/K43A/Y45A on the MK‐0 template, fused to NanoLuc (ligand)
chain: APASSSTKKTQLQLEHLLLDLQMILNGINNYKNPALTAMLTFAFAMPKKATELKHLQCLEEELKPLEEVLNLAQSKNFHLRPRDLISNINVIVLELKGSETTFMCEYADETATIVEFLNRWITFAQSIISTLT
  mouse 293Tα/293T ratio: 1.8 ratio
